Laboratory results taken from US12024547B2, “KLK5 inhibitory peptide” (DAIICHI SANKYO COMPANY, LIMITED, priority 2018, dated 2024).

T1: KLK5 (Homo sapiens, UniProt Q9Y337)
T1 construct: “Active KLK5” means active KLK5, which is composed of a domain having a protease activity; His tag (C); FLAG (Gly-DYKDDDDK before the His tag); made in house; host or cells: Expi293F cells
T1 sequence (Q9Y337 67-293): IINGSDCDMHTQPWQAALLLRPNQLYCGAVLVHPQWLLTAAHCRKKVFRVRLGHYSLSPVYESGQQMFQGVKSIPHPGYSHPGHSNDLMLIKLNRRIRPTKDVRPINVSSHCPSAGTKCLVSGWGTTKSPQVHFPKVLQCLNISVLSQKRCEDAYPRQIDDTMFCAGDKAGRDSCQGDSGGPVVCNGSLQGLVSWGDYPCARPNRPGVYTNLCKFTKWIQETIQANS

T2: human KLK14 (Homo sapiens, UniProt Q9P0G3)
T2 construct: His tag (C); FLAG (Gly-DYKDDDDK before the His tag); made in house; host or cells: Expi293F cells
T2 sequence (Q9P0G3 25-251): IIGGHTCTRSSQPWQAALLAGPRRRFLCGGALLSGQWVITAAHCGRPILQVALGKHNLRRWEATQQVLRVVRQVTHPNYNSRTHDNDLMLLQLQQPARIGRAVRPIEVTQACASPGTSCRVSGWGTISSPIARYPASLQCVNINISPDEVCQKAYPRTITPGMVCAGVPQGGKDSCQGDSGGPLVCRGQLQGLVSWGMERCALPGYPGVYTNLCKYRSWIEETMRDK


Legend:
[1] = target: T1, KLK5; assay: KLK5 binding activity of KLK5 inhibitory peptide, surface plasmon resonance (biotinylated KLK5 captured, peptide as analyte); conditions: BIAcore T 200, single cycle kinetics
Experimental: In order to measure the binding affinity of the KLK5 inhibitory peptides, surface plasmon resonance analysis was conducted using BIAcore T 200 (GE healthcare). A complementary strand of DNA of a streptavidin conjugate was captured by hybridization on Sensor Chip CAP (GE healthcare) on which single-stranded DNA immobilized. Next, KLK5 biotinylated using EZ-Link NHS-PEG4-Biotin (Thermo Fisher Scientific) was captured at a flow rate of 10 μL/min to immobilize about 10 RU. Thereafter, the KLK5 inhibitory peptide, serially diluted 2-fold with HBS-EP (0.625 to 10 nM), was added thereto as an analyte at a flow rate of 30 μL/min. In the BIAcore T 200 Evaluation software (version 2.0), kon and koff were calculated by analysis using Single cycle kinetics in a simple one-to-one Langmuir binding model. The dissociation constant KD was calculated as a ratio of koff/kon. Further, multiple KLK5 inhibitory peptides were measured by regenerating Sensor Chip CAP using a Regeneration buffer attached to a Biotin CAPture Kit (GE healthcare) and repeatedly capturing biotinylated KLK5.

[2] = target: T1, KLK5; assay: X-ray crystal structure analysis of KLK5/KLK5 inhibitory peptide complex; conditions: resolution 1.8 Å
Experimental: According to the methods described in (1-2) and (2-2), KLK5 inhibitory peptides K51034 and KLK5 having the amino acid sequences shown by the SEQ ID numbers were prepared. After mixing the two under conditions of 50 mM Tris-HCl, 150 mM NaCl, and pH 8.0, a complex was isolated and purified by gel filtration chromatography (Superdex 200 10/300 GL).
The complex solution prepared in (4-1) was concentrated to 12 mg/mL, thereafter mixed with a reservoir solution (0.2 M Magnesium Chloride hexahydrate, 20% PEG3350) at a ratio of 1:1, and crystallized by a vapor diffusion method. The obtained cubic single crystal was immersed in a reservoir solution containing 20% glycerol and thereafter frozen in liquid nitrogen. The frozen crystals were irradiated with X-rays in a cryo-stream to obtain a diffraction image (Hypixel 6000HE/MicroMax007). Scaling data with a maximum resolution of 1.7 Å was obtained by analysis using CrysAlisPro. The phase was determined by the molecular replacement method using KLK5 alone (PDB ID: 2PSX) and SPINK2 alone (PDB ID: 2JXD) as templates. After structural refinement, complex crystals of KLK5/the peptide K51034 were determined at a resolution of 1.8 Å. One molecule each of KLK5 and SPINK2 was contained in a unit cell. […]

[3] = target: T2, human KLK14; assay: Human KLK14 inhibitory activity, peptide substrate degradation; assay type: biochemical; conditions: KLK5 inhibitory peptide; hKLK14 0.2 μg/mL, substrate 100 μM
Experimental: The substrate peptide was dissolved in DMSO to 10 mM and diluted with an assay buffer (50 mM Tris-HCl, 150 mM NaCl, pH 8.0) for use. 25 μL each of human/mouse KLK5, human/mouse KLK7, or human/mouse KLK14 and the inhibitory peptide diluted with the assay buffer were mixed, followed by a reaction at 37° C. for 20 minutes. Thereafter, 50 μL of a substrate diluted with the assay buffer was added thereto, and the fluorescence signal was measured using Enspire (PerkinElmer). The combinations of the enzyme and the substrate used were as follows.
Evaluation of Human KLK14 inhibitory activity: hKLK14 with a final concentration of 0.2 μg/mL, a substrate peptide Boc-Val-Pro-Arg-AMC with a final concentration of 100 μM (R&D Systems, Inc.), and a fluorescence signal with excitation at 380 nm/emission at 460 nm
The average value of three independent experiments was used to calculate the IC50 value.
According to the method described in Example 3-1, the inhibitory activities of each KLK5 inhibitory peptide Fc fusion against human/mouse KLK5, human/mouse KLK7, and human/mouse KLK14 were evaluated. […] The average value of three independent experiments was used to calculate the IC50 value.

Row | Molecule | Koff [1] [s⁻¹] | binding site on KLK5 in complex crystal [2] | IC50 [3] [nM]
1 | K50016: KLK5 inhibitory peptide (SPINK2 mutant), amino acid sequence SEQ ID NO: 12 (protein) GPQFGLFSKYRTPNCSQWQYSSCDRVYDPVCGSDMSTYANECTLCMKIREGGHNIKIIRNGPCGG | 0.00029 |  | 
2 | K50032: KLK5 inhibitory peptide (SPINK2 mutant), amino acid sequence SEQ ID NO: 6 (protein) GPQFGLFSKYRTPNCLNWTDHQCERDYDPVCGSDMSTYANECTLCMKIREGGHNIKIIRNGPCGG | 0.00027 |  | 
3 | K51090: KLK5 inhibitory peptide (SPINK2 mutant), amino acid sequence SEQ ID NO: 18 (protein) GPQFGLFSKYRTPNCDEIGKYGCGRSYDPVCGSDMSTYANECTLCMKIREGGHNIKIIRNGPCGG | 5.7e-05 |  | 
4 | K50055: KLK5 inhibitory peptide (SPINK2 mutant), amino acid sequence SEQ ID NO: 8 (protein) GPQFGLFSKYRTPNCANTMKQDCTREYDPVCGSDMSTYANECTLCMKIREGGHNIKIIRNGPCGG | 1.8e-05 |  | 
5 | K51034: KLK5 inhibitory peptide (SPINK2 mutant), amino acid sequence SEQ ID NO: 14 (protein) GPQFGLFSKYRTPNCGRYTTGGCNKEYEPVCGSDMSTYANECTLCMKIREGGHNIKIIRNGPCGG | 3.5e-05 | bound to a region containing the KLK5 enzyme's active site | 
6 | K51057: KLK5/KLK7 inhibitory peptide (SPINK2 mutant), amino acid sequence SEQ ID NO: 28 (protein) GPQFGLFSKYRTPNCGTMQGSGCTYHYEPVCGSDMSTYANECTLCMKIREGGHNIKIIRNGPCGG | 0.0015 |  | 
7 | K50015: KLK5/KLK14 inhibitory peptide (SPINK2 mutant), amino acid sequence SEQ ID NO: 32 (protein) GPQFGLFSKYRTPNCYDTTTHYCSREYDPVCGSDMSTYANECTLCMKIREGGHNIKIIRNGPCGG | 1e-06 |  | 
8 | K51028: KLK5/KLK7 inhibitory peptide (SPINK2 mutant), amino acid sequence SEQ ID NO: 22 (protein) GPQFGLFSKYRTPNCYQYRSKGCTHEYDPVCGSDMSTYANECTLCMKIREGGHNIKIIRNGPCGG | 2e-05 |  | 
9 | K50098: KLK5 inhibitory peptide (SPINK2 mutant), amino acid sequence SEQ ID NO: 20 (protein) GPQFGLFSKYRTPNCTSQTLGSCSREYDPVCGSDMSTYANECTLCMKIREGGHNIKIIRNGPCGG | 1.8e-05 |  | 
10 | K50031: KLK5/KLK7 inhibitory peptide (SPINK2 mutant), amino acid sequence SEQ ID NO: 26 (protein) GPQFGLFSKYRTPNCGEYKGRGCYYHYDPVCGSDMSTYANECTLCMKIREGGHNIKIIRNGPCGG | 5e-05 |  | 
11 | K51005: KLK5/KLK7 inhibitory peptide (SPINK2 mutant), amino acid sequence SEQ ID NO: 24 (protein) GPQFGLFSKYRTPNCMQHARQGCHYDYDPVCGSDMSTYANECTLCMKIREGGHNIKIIRNGPCGG | 0.0012 |  | > 1000
12 | K50062: KLK5 inhibitory peptide (SPINK2 mutant), amino acid sequence SEQ ID NO: 16 (protein) GPQFGLFSKYRTPNCQQYRELGCGRQYDPVCGSDMSTYANECTLCMKIREGGHNIKIIRNGPCGG | 2.9e-06 |  | 
13 | K51069: KLK5/KLK14 inhibitory peptide (SPINK2 mutant), amino acid sequence SEQ ID NO: 30 (protein) GPQFGLFSKYRTPNCSQVVETYCNRDYDPVCGSDMSTYANECTLCMKIREGGHNIKIIRNGPCGG | 1e-06 |  | 
14 | K51072: KLK5 inhibitory peptide (SPINK2 mutant), amino acid sequence SEQ ID NO: 10 (protein) GPQFGLFSKYRTPNCQEDMTEYCARDFDPVCGSDMSTYANECTLCMKIREGGHNIKIIRNGPCGG | 2.2e-05 |  | 
